Assay results published in patent US20210292396A1.

Experiments:
Assay in all cases: cell-based or functional assay
[1] = target: Env of HIV isolate MB539.2B7 (clade A) (HIV)
[2] = target: HIV Env of isolate CAP210.E8 (HIV)
[3] = target: Env of HIV isolate DU151.02 (clade C) (HIV)
[4] = target: HIV Env of isolate 001428-2.42 (HIV)
[5] = target: Env of HIV isolate Q769.d22 (clade A) (HIV)
[6] = target: Env of HIV isolate 0260.v5.c36 (clade A) (HIV)
[7] = target: Env of HIV isolate TZA125.17 (clade C) (HIV)
[8] = target: HIV Env of isolate 3337.v2.c6 (HIV)
[9] = target: HIV Env of isolate 25711-2.4 (HIV)
[10] = target: Env of HIV isolate 3637.v5.c3 (clade C) (HIV)
[11] = target: HIV Env of isolate CAP244.D3 (HIV)
[12] = target: Env of HIV isolate 25710-2.43 (clade C) (HIV)
[13] = target: HIV Env of isolate DU123.06 (HIV)
[14] = target: HIV Env of isolate SO18.18 (HIV)
[15] = target: Env of HIV isolate QH0692.42 (clade B) (HIV)
[16] = target: Env of HIV isolate X2131.C1.B5 (clade G) (HIV)
[17] = target: Env of HIV isolate 6471.v1.c16 (clade C) (HIV)
[18] = target: Env of HIV isolate 6322.v4.c1 (clade C) (HIV)
[19] = target: Env of HIV isolate HXB2.DG (clade B) (HIV)
[20] = target: HIV Env of isolate DU156.12 (HIV)
[21] = target: HIV Env of isolate 16936-2.21 (HIV)
[22] = target: HIV Env of isolate CNE7 (HIV)
[23] = target: Env of HIV isolate BB539.2B13 (clade A) (HIV)
[24] = target: Env of HIV isolate BaL.26 (clade B) (HIV)
[25] = target: Env of HIV isolate 5768.04 (clade B) (HIV)
[26] = target: Env of HIV isolate 001428-2.42 (clade C) (HIV)
[27] = target: HIV Env of isolate 16845-2.22 (HIV)
[28] = target: Env of HIV isolate DU156.12 (clade C) (HIV)
[29] = target: Env of HIV isolate A07412M1.vrc12 (clade D) (HIV)
[30] = target: Env of HIV isolate 288.38 (clade C) (HIV)
[31] = target: HIV Env of isolate A03349M1.vrc4a (HIV)
[32] = target: Env of HIV isolate CNE12 (clade B) (HIV)
[33] = target: Env of HIV isolate BG1168.01 (clade B) (HIV)
[34] = target: Env of HIV isolate CNE20 (clade BC) (HIV)
[35] = target: Env of HIV isolate 246-F3.C10.2 (clade AC) (HIV)
[36] = target: HIV Env of isolate 3168.v4.c10 (HIV)
[37] = target: Env of HIV isolate 3168.v4.c10 (clade C) (HIV)
[38] = target: HIV Env of isolate TZA125.17 (HIV)
[39] = target: Env of HIV isolate MN.3 (clade B) (HIV)
[40] = target: Env of HIV isolate BL01.DG (clade B) (HIV)
[41] = target: Env of HIV isolate 25711-2.4 (clade C) (HIV)
[42] = target: Env of HIV isolate ZA012.29 (clade C) (HIV)
[43] = target: Env of HIV isolate CNE7 (clade BC) (HIV)
[44] = target: Env of HIV isolate KER2008.12 (clade A) (HIV)
[45] = target: Env of HIV isolate ZM55.28a (clade C) (HIV)
[46] = target: Env of HIV isolate 45_01dG5 (clade B) (HIV)
[47] = target: Env of HIV isolate MB201.A1 (clade A) (HIV)
[48] = target: Env of HIV isolate ZM109.4 (clade C) (HIV)
[49] = target: Env of HIV isolate 16055-2.3 (clade C) (HIV)
[50] = target: HIV Env of isolate CH070.1 (HIV)

B1: ePGT121.15 (ePGT121.15.H6 VH and ePGT121.15.L1 VL) (antibody, V domains shown)
VH: QMQLQESGPGLVKPGETLSLTCSVSGASISSSYWSWLRETPGKGLEWIGYTHHSGDTNYAPSLKSRVHLGLHPSKNQVSLSLTSVTAADTAVYYCARTLHGRRIYGVVAFNEFFTYFYWEVWGKGTQVTVSS
VL: SDISVAPGETVRISCGGESIGSRAVQWYQHRAGQAPKLIIYNNQDRPPGIPERFSGSPDIDFGTTATLTITNVEAGDEATYYCHIWDSRRPTNWVFGGGTTLTVL
Question: Which IC50, pseudovirus neutralization [1] does the source give for B1 here?
Answer: > 50000 ng/mL

Question: And the IC80, pseudovirus neutralization [2]?
Answer: 268 ng/mL

Question: What about the IC50, pseudovirus neutralization [3] of the same binder?
Answer: 2 ng/mL

Question: And the IC80, pseudovirus neutralization [4]?
Answer: 5 ng/mL

Question: What about the IC50, pseudovirus neutralization [5] of the same binder?
Answer: > 50000 ng/mL

Question: What about the IC50, pseudovirus neutralization [6] of the same binder?
Answer: 4 ng/mL

Question: And the IC50, pseudovirus neutralization [7]?
Answer: 70 ng/mL

Question: And the IC80, pseudovirus neutralization [8]?
Answer: 2630 ng/mL

Question: And the IC80, pseudovirus neutralization [9]?
Answer: 8 ng/mL

Question: And the IC50, pseudovirus neutralization [10]?
Answer: > 50000 ng/mL

Question: What about the IC80, pseudovirus neutralization [11] of the same binder?
Answer: > 50000 ng/mL

Question: And the IC50, pseudovirus neutralization [12]?
Answer: 6 ng/mL

Question: And the IC80, pseudovirus neutralization [13]?
Answer: 8 ng/mL

Question: What about the IC80, pseudovirus neutralization [14] of the same binder?
Answer: 9 ng/mL

Question: What about the IC50, pseudovirus neutralization [15] of the same binder?
Answer: 15 ng/mL

Question: And the IC50, pseudovirus neutralization [16]?
Answer: 2 ng/mL

Question: What about the IC50, pseudovirus neutralization [17] of the same binder?
Answer: 1040 ng/mL

Question: What about the IC50, pseudovirus neutralization [18] of the same binder?
Answer: > 50000 ng/mL

Question: And the IC50, pseudovirus neutralization [19]?
Answer: 11 ng/mL

Question: What about the IC80, pseudovirus neutralization [20] of the same binder?
Answer: 5 ng/mL

Question: And the IC80, pseudovirus neutralization [21]?
Answer: 7 ng/mL

Question: What about the IC80, pseudovirus neutralization [22] of the same binder?
Answer: 13 ng/mL

Question: What about the IC50, pseudovirus neutralization [23] of the same binder?
Answer: > 50000 ng/mL

Question: And the IC50, pseudovirus neutralization [24]?
Answer: 3 ng/mL

Question: What about the IC50, pseudovirus neutralization [25] of the same binder?
Answer: 28 ng/mL

Question: And the IC50, pseudovirus neutralization [26]?
Answer: 2 ng/mL

Question: What about the IC80, pseudovirus neutralization [27] of the same binder?
Answer: 264 ng/mL

Question: And the IC50, pseudovirus neutralization [28]?
Answer: 2 ng/mL

Question: What about the IC50, pseudovirus neutralization [29] of the same binder?
Answer: 5 ng/mL

Question: What about the IC50, pseudovirus neutralization [30] of the same binder?
Answer: 1 ng/mL

Question: What about the IC80, pseudovirus neutralization [31] of the same binder?
Answer: 19 ng/mL

Question: And the IC50, pseudovirus neutralization [32]?
Answer: 3 ng/mL

Question: What about the IC50, pseudovirus neutralization [33] of the same binder?
Answer: > 50000 ng/mL

Question: And the IC50, pseudovirus neutralization [34]?
Answer: 3 ng/mL

Question: What about the IC50, pseudovirus neutralization [35] of the same binder?
Answer: 11600 ng/mL

Question: And the IC80, pseudovirus neutralization [36]?
Answer: 75 ng/mL

Question: And the IC50, pseudovirus neutralization [37]?
Answer: 26 ng/mL

Question: And the IC80, pseudovirus neutralization [38]?
Answer: 403 ng/mL

Question: And the IC50, pseudovirus neutralization [39]?
Answer: 4 ng/mL

Question: And the IC50, pseudovirus neutralization [40]?
Answer: 13100 ng/mL

Question: What about the IC50, pseudovirus neutralization [41] of the same binder?
Answer: 4 ng/mL

Question: And the IC50, pseudovirus neutralization [42]?
Answer: 4 ng/mL

Question: And the IC50, pseudovirus neutralization [43]?
Answer: 5 ng/mL

Question: And the IC50, pseudovirus neutralization [44]?
Answer: 10 ng/mL

Question: And the IC50, pseudovirus neutralization [45]?
Answer: 9 ng/mL

Question: And the IC50, pseudovirus neutralization [46]?
Answer: 3 ng/mL

Question: And the IC50, pseudovirus neutralization [47]?
Answer: 4 ng/mL

Question: And the IC50, pseudovirus neutralization [48]?
Answer: 3370 ng/mL

Question: What about the IC50, pseudovirus neutralization [49] of the same binder?
Answer: 29 ng/mL

Question: What about the IC80, pseudovirus neutralization [50] of the same binder?
Answer: 4 ng/mL
